Source: paper PMC9839844, “PPDPF Promotes the Development of Mutant KRAS‐Driven Pancreatic Ductal Adenocarcinoma by Regulating the GEF Activity of SOS1” (Advanced Science, 2022)

Target: T1, SOS1^Cat (catalytic module of SOS1: REM and CDC25 domains), recombinant (UniProt Q07889 566-1046)
T1 construct: SOS1, Cat domain (REM and CDC25 domains together); cloned into the ProEX HTb vector; also called SOS^Cat; Cat domain; source: E. coli BL21 (Rosta), purified (His beads)
T1 sequence: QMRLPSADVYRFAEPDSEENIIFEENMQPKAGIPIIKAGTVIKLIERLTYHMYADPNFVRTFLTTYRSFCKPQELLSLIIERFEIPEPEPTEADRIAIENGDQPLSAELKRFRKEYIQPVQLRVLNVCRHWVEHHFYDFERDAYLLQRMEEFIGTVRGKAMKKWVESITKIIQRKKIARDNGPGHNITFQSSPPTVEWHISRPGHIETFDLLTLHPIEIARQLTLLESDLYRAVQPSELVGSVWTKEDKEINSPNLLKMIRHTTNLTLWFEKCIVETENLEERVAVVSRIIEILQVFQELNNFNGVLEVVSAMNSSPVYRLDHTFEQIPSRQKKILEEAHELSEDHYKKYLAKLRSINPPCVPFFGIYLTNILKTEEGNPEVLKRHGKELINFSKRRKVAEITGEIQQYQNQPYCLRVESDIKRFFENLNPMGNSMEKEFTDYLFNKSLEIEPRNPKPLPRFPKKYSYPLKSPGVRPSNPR
Experiment: pull-down; GST pulldown in vitro with recombinant proteins
Settings: both partners purified

binding result: binds
B1: PPDPF, recombinant (natural protein, UniProt Q9H3Y8 1-114, looked up)
chain: MAAIPSSGSLVATHDYYRRRLGSTSSNSSCSSTECPGEAIPHPPGLPKADPGHWWASFFFGKSTLPFMATVLESAEHSEPPQASSSMTACGLARDAPRKQPGGQSSTASAGPPS
notes: Pancreatic progenitor cell differentiation and proliferation factor (PPDPF); subcloned into pGEX-4T-1; The methods say that the beads were incubated with thrombin; also called PPDPF recombinant protein; source: E. coli BL21, purified (GST beads)
